Experiment [1] concerns the target T1, linear diubiquitin (Boston Biochem) (human, UniProt P0CG48 1-152).
T1 construct: Bought product
Briefly: phage IC50 competition ELISA: soluble linear diUb against plate-coated linear diUb for the 1D8.3C2 Fab-phage. On the technique in general: In an ELISA, binding on a coated surface is turned into a signal by an enzyme label.

The target in experiment [2] is T2, K63-linked polyubiquitin 2-7 (Boston Biochem) (human, UniProt P0CG48 1-76, isopeptide bonds between the C-terminus of one ubiquitin and Lys63 of the next).
T2 construct: also called K63-linked chains
Briefly: phage spot ELISA, 2 ug/mL coated antigen, anti-M13-HRP. On the procedure: (§1) Ninety-six individual clones from the second round of sorting of the VH library, 192 clones from the third round of sorting of the VH library, 96 clones from the fourth round of sorting of the VH library, and 192 clones from the fourth round of sorting of the common light chain library were screened. […] Individual clones were grown up in a 96-well format in 1 mL of 2YT broth containing 50 μg/mL carbenicillin and 1×10¹⁰ phage/mL M13K07 helper phage at 37° C. overnight with shaking. Cells were pelleted by spinning at 3000 rpm for ten minutes. […] All of the Fab libraries contain a carboxy-terminal gD tag on the light chain which allows for assessment of display level by anti-gD antibody binding. The panel of ubiquitin proteins was immobilized on 384-well Maxisorb immunoplates (NUNC). Plates were coated at 4° C. overnight with 2 μg/mL of each protein in 50 mM sodium carbonate buffer, pH 9.6. The coated plates were blocked with 60 μL/well of 2.5% milk in PBST for one hour at 25° C. with shaking. After one hour, the blocking buffer was dumped off of the plate and 20 μL/well of PBST and 10 μL/well of phage supernatant were added. Plates were incubated at 25° C. for one hour with shaking. The plate was then washed six times with PBST by manually filling the wells and dumping off the wash buffer. A 1:5,000 dilution of an anti-M13 horseradish peroxidase (HRP)-conjugated secondary antibody (GE Healthcare) in PBST was used for detection of phage binding. 30 μL/well of the secondary dilution was added and the plate was incubated at 25° C. for 30 minutes with shaking. The plate was then washed six times with PBST and twice with PBS, both manually. Bound secondary antibody was detected using a TMB substrate (KPL) followed by quenching with an equal volume of 1 M phosphoric acid. The absorbance was read at 450 nm.

Experiment [3] concerns the target T3, K48-linked polyubiquitin 2-7 (Boston Biochem) (human, UniProt P0CG48 1-76, isopeptide bonds between the C-terminus of one ubiquitin and Lys48 of the next).
T3 construct: also called K48-linked chains
The experiment is described as above. Here is the method: as §1

The target in experiment [4] is T4, K11-linked diubiquitin (Genentech) (human, UniProt P0CG48 1-76, isopeptide bond between the C-terminus of one ubiquitin and Lys11 of the other).
T4 construct: also called K11 diUb
Described as above. On the procedure: as §1

Experiment [5] has as its target T5, monoubiquitin (Boston Biochem) (human, UniProt P0CG48 1-76).
T5 construct: Bought product
The description is as above. On the procedure:
as §1

For experiment [6], the target named is T1, linear diubiquitin (Boston Biochem). Briefly: phage IC50 competition ELISA with soluble linear diubiquitin. Here is the method: (§2) An initial titer ELISA was done to determine the amount of phage at which a signal of OD₄₅₀=0.5 would be achieved. […] The coated plates were blocked with 200 μL/well of 2.5% milk in PBST for one hour at 25° C. with shaking. Twelve two-fold serial dilutions of the phage were made in 2.5% milk in PBST from OD₂₆₈=4.0 to OD₂₆₈=0.002. After one hour, the blocking buffer was dumped off of the plate and 100 μL/well of each phage dilution was added and incubated at 25° C. for 15 minutes with shaking. The plate was then washed six times with PBST using a plate washer. A 1:5000 dilution of an anti-M13 phage-HRP-conjugated secondary antibody (GE Healthcare) in PBST was used for detection of phage binding. 100 μL/well of the secondary dilution was added and the plate was incubated at 25° C. for 30 minutes with shaking. The plate was then washed 12 times with PBST using a plate washer and twice with PBS manually. Bound secondary antibody was detected using a TMB substrate (KPL) followed by quenching with an equal volume of 1 M phosphoric acid.

The target is the same in experiment [7]. Briefly: phage IC50 competition ELISA: Fab-phage with titrated soluble linear diubiquitin, unbound phage caught on coated linear diubiquitin; clone 1E3. Here is the method: as §2
The target is the same in experiment [8]. Briefly: phage IC50 competition ELISA: Fab-phage with titrated soluble linear diubiquitin, unbound phage caught on coated linear diubiquitin; clone 1D8. Here is the method: as §2
The target in experiment [9] is T4, K11-linked diubiquitin (Genentech). Briefly: phage specificity ELISA, 1 ug/mL coated antigen, anti-M13-HRP.
Experiment [10] deals with T6, K48-linked diubiquitin (Boston Biochem) (human, UniProt P0CG48 1-76, isopeptide bond between the C-terminus of one ubiquitin and Lys48 of the other).
T6 construct: Bought product; also called K48 diUb
Described as above.

Experiment [11] concerns the target T5, monoubiquitin (Boston Biochem). The description is as above.
The target in experiment [12] is T1, linear diubiquitin (Boston Biochem). The experiment in a line: western blot, 1 ug/mL IgG, LI-COR Odyssey quantification; Ub2 bands seen at 37 (faint), 111, 333 and 1000 ng. On the technique in general: A western blot detects proteins with antibodies after separation by electrophoresis.
For experiment [13] the target is unchanged. Briefly: phage IC50 competition ELISA with soluble linear diubiquitin. The source holds these as a separate data set.
For experiment [14] the target is unchanged. The experiment in a line: western blot, 1 ug/mL IgG, LI-COR Odyssey quantification; Ub2 bands seen at 111 (faint), 333 and 1000 ng.
For experiment [15], the target named is T4, K11-linked diubiquitin (Genentech). Briefly: phage specificity ELISA, 1 ug/mL coated antigen, anti-M13-HRP. This is another data set of the same source.
For experiment [16], the target named is T6, K48-linked diubiquitin (Boston Biochem). The description is as above. The source holds these as a separate data set.
Experiment [17] has as its target T5, monoubiquitin (Boston Biochem). Described as above. This is another data set of the same source.

Substitutions are numbered along the chain they refer to. Names and notes keep the numbering of the source. Values joined by “and” are separate entries in the source; they are usually repeats but may differ in a detail not shown here. Equal entries are not always repeated. Where two headings read alike, the source gives them in different places.

Here are results for 14 molecules from patent US20130058955A1 (Genentech, published 2013).

B1: 1D8.3C2, Fab displayed on phage (Fab, V domains shown)
VH: EVQLVESGGGLVQPGGSLRLSCAASGFTFTDYDIHWVRQAPGKGLEWVAWISPYSGYTDYADSVKGRFTISADTSKNTAYLQMNSLRAEDTAVYYCAREAGSRLLSVMDYWGQGTLVTVSS
VL: DIQMTQSPSSLSASVGDRVTITCRASQGVDNSVAWYQQKPGKAPKLLIYSASFLYSGVPSRFSGSGSGTDFTLTISSLQPEDFATYYCQQSYTTPPTFGQGTKVEIK
notes: Fab on M13 phage
On to B1, for which, in experiment [1], the binding result was “binds”.

B2: 1A10, Fab displayed on phage (Fab, V domains shown)
VH: EVQLVESGGGLVQPGGSLRLSCAASGFNIYYSSIHWVRQAPGKGLEWVASIYPYYGYTSYADSVKGRFTISADTSKNTAYLQMNSLRAEDTAVYYCARGYSWYYGSPAFDYWGQGTLVTVSS
VL: B1 VL with G28S, D30S, N31S, S32A, F53S, G66R, S91H
notes: Fab on M13 phage
Regarding B2, the binding result in [2], in experiment [3], in experiment [4] and in experiment [5] was “no binding” in each case.

B3: 1E3, Fab displayed on phage (Fab, V domains shown)
VH: EVQLVESGGGLVQPGGSLRLSCAASGFTFSNTYISWVRQAPGKGLEWVASITPSSGSTDYADSVKGRFTISADTSKNTAYLQMNSLRAEDTAVYYCARTWLLRWVMDYWGQGTLVTVSS
VL: B1 VL with G28D, D30S, N31T, S32A
notes: Fab on M13 phage (heavy chain fused to gpIII, gD tag on light chain); Fab-zip (bivalent) in the first spot ELISA, monovalent afterwards; also called WT; parental 1E3
What is called IC50 is the concentration that inhibits the measured activity by half. A low value points to higher potency. Regarding B3, the IC50 is 29 nM and 24 nM and 25 nM in experiment [6]; 80 nM in experiment [7].

B4: 1D8, Fab displayed on phage (Fab, V domains shown)
VH: B1 VH with W50G, S55G
VL: B1 VL with G28D, D30S, N31T, S32A
notes: Fab on M13 phage (heavy chain fused to gpIII, gD tag on light chain); Fab-zip (bivalent) in the first spot ELISA, monovalent afterwards; also called parental wild-type 1D8
Consider B4, for which, in experiment [8], the IC50 is roughly 5000 nM.

B5: 2H5/3F5 double mutant, Fab displayed on phage (Fab, name in Kabat numbering, V domains shown)
VH: B3 VH with S57Q
VL: B1 VL with G28D, D30S, N31T, S32A, T94N
With B5, the binding result in experiment [9], in experiment [10] and in experiment [11] was “no binding (tested: phage OD268 1)” in each case. Moreover, the half-maximal inhibitory concentration (IC50) in [6] is 8 nM.

B6: 2C11/3F5 double mutant, Fab displayed on phage (Fab, name in Kabat numbering, V domains shown)
VH: B3 VH with S57Q
VL: B1 VL with G28D, D30S, N31T, S32A, T94Q
On to B6, for which the binding result in experiment [9], in [10] and in [11] was “no binding (tested: phage OD268 1)” in each case. The molecule also had a half-inhibitory concentration (IC50) in experiment [6] of 10 nM.

B7: 3F5/Y102L IgG (antibody, V domains shown)
VH: B3 VH with S57Q, Y108L
VL: B1 VL with G28D, D30S, N31T, S32A
notes: Human kappa IgG1
On to B7, for which the “signal of the Ub2 band at 1000 ng linear diUb (number under the arrow)” value (shortened to “signal of the Ub2 band”) in [12] was found to be 18.

B8: 1D8.4F5, Fab displayed on phage (Fab, V domains shown)
VH: B1 VH with Y32D, W50E, S55G
VL: B1 VL with G28D, D30S, N31T, S32A, Y92F
notes: Fab on M13 phage
As to B8, the IC50 in experiment [13] is roughly 2000 nM.

B9: Y102L IgG (antibody, V domains shown)
VH: B3 VH with Y108L
VL: B1 VL with G28D, D30S, N31T, S32A
notes: human kappa IgG1; also called Y012L
Consider B9, for which, in experiment [14], the “signal of the Ub2 band” value came out at 5.4.

B10: 1F11/Y102L T110A (antibody, V domains shown)
VH: B3 VH with Y108L, T116A
VL: B1 VL with G28D, D30S, N31T, S32A, S52K
notes: also called 1F11/Y102L T110A IgG
For the molecule B10, the “signal of the Ub2 band” value in experiment [14] came out at 8.4.

B11: 1F11/Y102L IgG (antibody, V domains shown)
VH: B3 VH with Y108L
VL: B1 VL with G28D, D30S, N31T, S32A, S52K
notes: human kappa IgG1
In the case of B11, in experiment [14], the “signal of the Ub2 band” value stood at 5.3.

B12: 1F11/3F5 double mutant, Fab displayed on phage (Fab, V domains shown)
VH: B3 VH with S57Q
VL: B1 VL with G28D, D30S, N31T, S32A, S52K
notes: S52K (L2) and S56Q (H2)
As for B12, the binding result in experiment [15], in experiment [16] and in experiment [17] was “no binding (tested: phage OD268 1)” each time. In experiment [6], this molecule returned an IC50 of 5 nM.

B13: 1F11/3F5/Y102L T110A (antibody, V domains shown)
VH: B3 VH with S57Q, Y108L, T116A
VL: B1 VL with G28D, D30S, N31T, S32A, S52K
notes: also called 1F11/3F5/Y102L T110A IgG
On to B13, for which, in [12], the “signal of the Ub2 band” value is 5.5.

B14: 1F11/3F5/Y102L IgG (antibody, V domains shown)
VH: B3 VH with S57Q, Y108L
VL: B1 VL with G28D, D30S, N31T, S32A, S52K
notes: also called triple mutant; hybrid anti-linear polyubiquitin antibody
For B14, in experiment [12], the “signal of the Ub2 band” value was found to be 15.5.
